# B1: Speckle-type POZ protein (Homo sapiens), O43791 (parent)
# chain: MSRVPSPPPPAEMSSGPVAESWCYTQIKVVKFSYMWTINNFSFCREEMGEVIKSSTFSSGANDKLKWCLRVNPKGLDEESKDYLSLYLLLVSCPKSEVRAKFKFSILNAKGEETKAMESQRAYRFVQGKDWGFKKFIRRDFLLDEANGLLPDDKLTLFCEVSVVQDSVNISGQNTMNMVKVPECRLADELGGLWENSRFTDCCLCVAGQEFQAHKAILAARSPVFSAMFEHEMEESKKNRVEINDVEPEVFKEMMCFIYTGKAPNLDKMADDLLAAADKYALERLKVMCEDALCSNLSVENAAEILILADLHSADQLKTQAVDFINYHASDVLETSGWKSMVVSHPHLVAEAYRSLASAQCPFLGPPRKRLKQS
# partner: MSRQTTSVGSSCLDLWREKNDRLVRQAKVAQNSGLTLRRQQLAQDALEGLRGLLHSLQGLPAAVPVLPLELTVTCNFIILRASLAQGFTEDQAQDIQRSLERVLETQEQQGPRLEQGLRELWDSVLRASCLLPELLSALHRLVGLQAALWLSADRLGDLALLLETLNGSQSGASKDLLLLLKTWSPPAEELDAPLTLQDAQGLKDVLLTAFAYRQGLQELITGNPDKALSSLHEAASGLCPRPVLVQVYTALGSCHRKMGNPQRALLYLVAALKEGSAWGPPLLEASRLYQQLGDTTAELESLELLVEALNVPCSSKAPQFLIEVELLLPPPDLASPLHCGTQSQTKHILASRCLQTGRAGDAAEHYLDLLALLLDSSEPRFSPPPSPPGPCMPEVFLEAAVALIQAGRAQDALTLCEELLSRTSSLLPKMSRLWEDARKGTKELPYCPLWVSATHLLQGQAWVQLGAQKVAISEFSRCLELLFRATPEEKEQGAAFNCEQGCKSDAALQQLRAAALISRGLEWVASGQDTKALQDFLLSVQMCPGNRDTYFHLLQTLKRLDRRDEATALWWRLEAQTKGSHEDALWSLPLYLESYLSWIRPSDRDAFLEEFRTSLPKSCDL
# B2: Speckle-type POZ protein (Homo sapiens), O43791 (parent)
# chain: B1 chain
# partner: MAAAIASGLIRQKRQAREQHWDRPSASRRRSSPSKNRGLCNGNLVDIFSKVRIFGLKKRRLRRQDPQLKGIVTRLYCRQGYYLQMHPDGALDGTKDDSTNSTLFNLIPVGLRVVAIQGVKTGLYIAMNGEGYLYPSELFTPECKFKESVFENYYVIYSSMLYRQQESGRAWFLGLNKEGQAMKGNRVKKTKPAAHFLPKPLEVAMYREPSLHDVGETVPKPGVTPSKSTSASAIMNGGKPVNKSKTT
# B3: Speckle-type POZ protein (Homo sapiens), O43791 (parent)
# chain: B1 chain
# partner: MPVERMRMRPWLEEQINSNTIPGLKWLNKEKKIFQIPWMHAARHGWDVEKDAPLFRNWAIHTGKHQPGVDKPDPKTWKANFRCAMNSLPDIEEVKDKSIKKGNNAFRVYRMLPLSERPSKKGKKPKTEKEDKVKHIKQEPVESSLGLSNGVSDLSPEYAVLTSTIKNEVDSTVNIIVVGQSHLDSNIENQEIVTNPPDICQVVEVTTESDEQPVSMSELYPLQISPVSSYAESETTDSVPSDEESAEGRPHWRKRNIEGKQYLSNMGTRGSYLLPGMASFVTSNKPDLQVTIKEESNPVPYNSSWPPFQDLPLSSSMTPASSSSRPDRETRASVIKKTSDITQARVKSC
# B4: Speckle-type POZ protein (Homo sapiens), O43791 (parent)
# chain: B1 chain
# partner: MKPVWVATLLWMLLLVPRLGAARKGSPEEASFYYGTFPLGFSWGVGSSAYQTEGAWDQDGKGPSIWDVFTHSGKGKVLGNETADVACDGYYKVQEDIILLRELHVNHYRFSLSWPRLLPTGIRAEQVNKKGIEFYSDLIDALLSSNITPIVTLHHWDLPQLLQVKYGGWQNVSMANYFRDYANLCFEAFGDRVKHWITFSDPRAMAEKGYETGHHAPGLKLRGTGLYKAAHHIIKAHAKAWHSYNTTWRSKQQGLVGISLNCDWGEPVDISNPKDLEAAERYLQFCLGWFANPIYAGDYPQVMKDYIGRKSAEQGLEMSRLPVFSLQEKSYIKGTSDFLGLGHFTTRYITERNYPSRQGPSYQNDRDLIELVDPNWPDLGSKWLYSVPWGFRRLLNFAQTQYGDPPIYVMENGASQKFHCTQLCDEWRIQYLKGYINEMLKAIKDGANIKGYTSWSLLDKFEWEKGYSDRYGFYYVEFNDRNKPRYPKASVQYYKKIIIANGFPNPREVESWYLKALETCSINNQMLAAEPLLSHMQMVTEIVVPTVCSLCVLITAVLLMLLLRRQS
# B5: Speckle-type POZ protein (Homo sapiens), O43791 (parent)
# chain: B1 chain
# partner: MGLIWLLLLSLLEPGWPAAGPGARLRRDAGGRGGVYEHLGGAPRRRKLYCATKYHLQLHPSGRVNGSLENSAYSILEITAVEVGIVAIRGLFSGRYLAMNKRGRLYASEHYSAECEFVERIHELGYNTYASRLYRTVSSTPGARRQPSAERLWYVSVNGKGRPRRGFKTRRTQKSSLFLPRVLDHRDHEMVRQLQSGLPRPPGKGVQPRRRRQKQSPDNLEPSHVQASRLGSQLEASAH
# B6: Speckle-type POZ protein (Homo sapiens), O43791 (parent)
# chain: B1 chain
# partner: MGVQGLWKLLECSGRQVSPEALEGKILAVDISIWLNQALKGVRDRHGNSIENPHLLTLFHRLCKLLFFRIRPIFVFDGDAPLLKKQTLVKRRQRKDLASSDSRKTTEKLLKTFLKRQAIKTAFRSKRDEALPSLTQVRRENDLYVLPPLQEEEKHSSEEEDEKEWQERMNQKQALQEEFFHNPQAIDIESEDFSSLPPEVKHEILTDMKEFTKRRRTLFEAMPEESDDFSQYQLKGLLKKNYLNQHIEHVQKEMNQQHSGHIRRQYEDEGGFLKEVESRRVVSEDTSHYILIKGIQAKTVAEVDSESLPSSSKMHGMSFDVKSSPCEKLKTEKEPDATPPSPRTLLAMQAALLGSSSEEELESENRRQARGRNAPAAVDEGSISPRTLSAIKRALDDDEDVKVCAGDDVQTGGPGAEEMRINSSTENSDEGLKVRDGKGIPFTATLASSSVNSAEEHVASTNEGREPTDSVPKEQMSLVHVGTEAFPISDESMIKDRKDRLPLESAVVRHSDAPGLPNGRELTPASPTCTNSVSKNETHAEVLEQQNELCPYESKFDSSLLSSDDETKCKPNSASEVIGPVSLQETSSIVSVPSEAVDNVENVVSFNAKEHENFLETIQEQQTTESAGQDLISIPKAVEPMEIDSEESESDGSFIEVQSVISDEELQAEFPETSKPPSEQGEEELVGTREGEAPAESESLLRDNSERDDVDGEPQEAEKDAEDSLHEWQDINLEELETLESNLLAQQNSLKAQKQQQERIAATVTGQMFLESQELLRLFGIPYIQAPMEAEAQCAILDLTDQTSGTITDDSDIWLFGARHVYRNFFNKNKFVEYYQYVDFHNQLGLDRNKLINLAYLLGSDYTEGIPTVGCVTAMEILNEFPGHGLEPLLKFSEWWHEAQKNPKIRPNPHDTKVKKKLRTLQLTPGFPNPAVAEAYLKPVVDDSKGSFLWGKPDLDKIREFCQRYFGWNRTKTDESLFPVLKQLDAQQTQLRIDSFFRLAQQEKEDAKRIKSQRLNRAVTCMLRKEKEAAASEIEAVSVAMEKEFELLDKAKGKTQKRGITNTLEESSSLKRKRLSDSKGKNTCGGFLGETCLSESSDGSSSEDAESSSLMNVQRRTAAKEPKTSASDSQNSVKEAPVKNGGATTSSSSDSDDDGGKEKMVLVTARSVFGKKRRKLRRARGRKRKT
# B7: Speckle-type POZ protein (Homo sapiens), O43791 (parent)
# chain: B1 chain
# partner: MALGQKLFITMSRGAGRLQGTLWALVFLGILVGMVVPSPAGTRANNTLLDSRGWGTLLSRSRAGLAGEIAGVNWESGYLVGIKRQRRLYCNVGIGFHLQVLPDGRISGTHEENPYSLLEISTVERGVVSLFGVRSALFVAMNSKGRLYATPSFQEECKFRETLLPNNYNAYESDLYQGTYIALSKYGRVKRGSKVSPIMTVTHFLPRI
# Variants of: B1
# Conditions: with fancg_human FANCG
row,Variant,effect of a mutation on the interaction
1,F102C,with no effect

# Variants of: B1
# Conditions: with fancg_human FANCG
# Remark: another data set of the same source
row,Variant,effect of a mutation on the interaction
1,F133L,with no effect

# Variants of: B1
# Conditions: with fancg_human FANCG
# Remark: another data set of the same source
row,Variant,effect of a mutation on the interaction
1,F133V,with no effect

# Variants of: B2
# Conditions: with fgf14_human FGF14, Q92915
row,Variant,effect of a mutation on the interaction
1,F133L,with no effect

# Variants of: B2
# Conditions: with fgf14_human FGF14, Q92915
# Remark: another data set of the same source
row,Variant,effect of a mutation on the interaction
1,F133V,with no effect

# Variants of: B2
# Conditions: with fgf14_human FGF14, Q92915
# Remark: another data set of the same source
row,Variant,effect of a mutation on the interaction
1,F102C,with no effect

# Variants of: B2
# Conditions: with fgf14_human FGF14, Q92915
# Remark: another data set of the same source
row,Variant,effect of a mutation on the interaction
1,Y87C,with no effect

# Variants of: B3
# Conditions: with irf2_human IRF2, P14316
row,Variant,effect of a mutation on the interaction
1,F102C,with no effect

# Variants of: B3
# Conditions: with irf2_human IRF2, P14316
# Remark: another data set of the same source
row,Variant,effect of a mutation on the interaction
1,F133V,with no effect

# Variants of: B3
# Conditions: with irf2_human IRF2, P14316
# Remark: another data set of the same source
row,Variant,effect of a mutation on the interaction
1,F133L,with no effect

# Variants of: B3
# Conditions: with irf2_human IRF2, P14316
# Remark: another data set of the same source
row,Variant,effect of a mutation on the interaction
1,Y87C,with no effect

# Variants of: B4
# Conditions: with lctl_human LCTL
row,Variant,effect of a mutation on the interaction
1,F102C,with no effect

# Variants of: B5
# Conditions: with fgf3_human FGF3, P11487
row,Variant,effect of a mutation on the interaction
1,Y87C,with no effect

# Variants of: B5
# Conditions: with fgf3_human FGF3, P11487
# Remark: another data set of the same source
row,Variant,effect of a mutation on the interaction
1,F102C,with no effect

# Variants of: B5
# Conditions: with fgf3_human FGF3, P11487
# Remark: another data set of the same source
row,Variant,effect of a mutation on the interaction
1,F133L,with no effect

# Variants of: B5
# Conditions: with fgf3_human FGF3, P11487
# Remark: another data set of the same source
row,Variant,effect of a mutation on the interaction
1,F133V,with no effect

# Variants of: B6
# Conditions: with ercc5_human ERCC5, P28715
row,Variant,effect of a mutation on the interaction
1,Y87C,with no effect

# Variants of: B6
# Conditions: with ercc5_human ERCC5, P28715
# Remark: another data set of the same source
row,Variant,effect of a mutation on the interaction
1,F102C,with no effect

# Variants of: B6
# Conditions: with ercc5_human ERCC5, P28715
# Remark: another data set of the same source
row,Variant,effect of a mutation on the interaction
1,F133L,with no effect

# Variants of: B6
# Conditions: with ercc5_human ERCC5, P28715
# Remark: another data set of the same source
row,Variant,effect of a mutation on the interaction
1,F133V,with no effect

# Variants of: B7
# Conditions: with fgf6_human FGF6, P10767
row,Variant,effect of a mutation on the interaction
1,F133V,with no effect

# Variants of: B7
# Conditions: with fgf6_human FGF6, P10767
# Remark: another data set of the same source
row,Variant,effect of a mutation on the interaction
1,F133L,with no effect

# Variants of: B7
# Conditions: with fgf6_human FGF6, P10767
# Remark: another data set of the same source
row,Variant,effect of a mutation on the interaction
1,Y87C,with no effect

# Variants of: B7
# Conditions: with fgf6_human FGF6, P10767
# Remark: another data set of the same source
row,Variant,effect of a mutation on the interaction
1,F102C,with no effect
